Measured values as given in US20150139990A1 (DAINIPPON SUMITOMO PHARMA, published 2015).
Changes are numbered by the printed parent chain. Numbers in names are those of the source.

Key:
Experiment in all cases: ELISA
human CD81 mutant V135L = target: T1, human CD81 mutant V135L (human, UniProt P60033 1-236, limits assumed)
T1 construct: as m30; not shown: C-terminal V5 and 6xHis tags
T1 sequence: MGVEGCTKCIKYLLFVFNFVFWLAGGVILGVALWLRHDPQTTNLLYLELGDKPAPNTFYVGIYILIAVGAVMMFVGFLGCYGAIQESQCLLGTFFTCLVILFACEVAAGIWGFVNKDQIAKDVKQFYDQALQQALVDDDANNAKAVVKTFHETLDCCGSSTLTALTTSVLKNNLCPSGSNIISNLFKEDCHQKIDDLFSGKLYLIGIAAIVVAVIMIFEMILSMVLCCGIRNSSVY
Summary of the method: (§1)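 Relative binding affinity was taken as the percentage of binding to unmodified CD81, corrected for V5-tag expression. The altered CD81 proteins, tagged with V5 and 6×His, were expressed in CHO cells for 48 hours, and 1% n-octylglucoside membrane extracts were loaded onto Ni-NTA His Sorb plates at 5 μg/100 μL/well (3 hours, 4° C). After 1 hour of antibody binding at room temperature, detection used HRP anti-human IgG4 with TMB at 450 nm.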

human CD81 mutant D137A = target: T2, human CD81 mutant D137A (human, UniProt P60033 1-236, limits assumed)
T2 construct: as m30; not shown: C-terminal V5 and 6xHis tags
T2 sequence: T1 sequence with L135V, D137A
Summary of the method: as §1

human CD81 mutant A164V = target: T3, human CD81 mutant A164V (human, UniProt P60033 1-236, limits assumed)
T3 construct: as m30; not shown: C-terminal V5 and 6xHis tags
T3 sequence: T1 sequence with L135V, A164V
Summary of the method: as §1

human CD81 mutant V169A = target: T4, human CD81 mutant V169A (human, UniProt P60033 1-236, limits assumed)
T4 construct: as m30; not shown: C-terminal V5 and 6xHis tags
T4 sequence: T1 sequence with L135V, V169A
Summary of the method: as §1

human CD81 mutant G158S = target: T5, human CD81 mutant G158S (human, UniProt P60033 1-236, limits assumed)
T5 construct: as m30; not shown: C-terminal V5 and 6xHis tags
T5 sequence: T1 sequence with L135V, G158S
Summary of the method: as §1

human CD81 mutant D137E = target: T6, human CD81 mutant D137E (human, UniProt P60033 1-236, limits assumed)
T6 construct: as m30; not shown: C-terminal V5 and 6xHis tags
T6 sequence: T1 sequence with L135V, D137E
Summary of the method: as §1

human CD81 mutant A164T = target: T7, human CD81 mutant A164T (human, UniProt P60033 1-236, limits assumed)
T7 construct: as m30; not shown: C-terminal V5 and 6xHis tags
T7 sequence: T1 sequence with L135V, A164T
Summary of the method: as §1

human CD81 mutant S168T = target: T8, human CD81 mutant S168T (human, UniProt P60033 1-236, limits assumed)
T8 construct: as m30; not shown: C-terminal V5 and 6xHis tags
T8 sequence: T1 sequence with L135V, S168T
Summary of the method: as §1

human CD81 mutant Y127W = target: T9, human CD81 mutant Y127W (human, UniProt P60033 1-236, limits assumed)
T9 construct: as m30; not shown: C-terminal V5 and 6xHis tags
T9 sequence: T1 sequence with Y127W, L135V

Measured: relative binding affinity

B1: 002-A07 IgG4 antibody (antibody)
heavy: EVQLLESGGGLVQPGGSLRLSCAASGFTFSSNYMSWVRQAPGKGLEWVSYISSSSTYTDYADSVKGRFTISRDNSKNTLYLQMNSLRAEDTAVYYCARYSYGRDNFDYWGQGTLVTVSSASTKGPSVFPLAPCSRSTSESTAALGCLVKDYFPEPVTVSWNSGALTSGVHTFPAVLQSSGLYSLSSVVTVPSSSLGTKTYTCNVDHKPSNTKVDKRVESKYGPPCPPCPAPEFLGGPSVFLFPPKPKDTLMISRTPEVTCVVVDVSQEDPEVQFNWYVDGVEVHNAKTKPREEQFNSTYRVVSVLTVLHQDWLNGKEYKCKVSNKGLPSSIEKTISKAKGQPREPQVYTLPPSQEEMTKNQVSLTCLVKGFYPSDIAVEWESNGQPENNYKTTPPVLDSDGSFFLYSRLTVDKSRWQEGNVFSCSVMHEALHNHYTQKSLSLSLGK
light: QSVLTQPPSASGTPGQRVTISCTGSTSNIGAGYDTHWYQQLPGTAPKLLIYGNSNRPSGVPDRFSGSKSGTSASLAISGLRSEDEADYYCQSYDTNLSVWVFGGGTKLTVLGQPKAAPSVTLFPPSSEELQANKATLVCLISDFYPGAVTVAWKADSSPVKAGVETTTPSKQSNNKYAASSYLSLTPEQWKSHRSYSCQVTHEGSTVEKTVAPTECS
notes: human IgG4 S228P, lambda light chain
not listed: human CD81 mutant Y127W
< 20%: all other assays above

B2: 002-A07 S115A (antibody, human IgG4 S228P, lambda, V domains shown)
VH: EVQLLESGGGLVQPGGSLRLSCAASGFTFSSNYMSWVRQAPGKGLEWVSYISSSSTYTDYADSVKGRFTISRDNSKNTLYLQMNSLRAEDTAVYYCARYSYGRDNFDYWGQGTLVTVSS
VL: QSVLTQPPSASGTPGQRVTISCTGSTSNIGAGYDTHWYQQLPGTAPKLLIYGNSNRPSGVPDRFSGSKSGTSASLAISGLRSEDEADYYCQSYDTNLAVWVFGGGTKLTVLG
notes: IgG4 S228P; glycosylation site mutant of 002-A07 VL
< 20%: human CD81 mutant Y127W
